Values quoted from earlier work as cited in publication PMC2910649.

Biological target: VEGFR2 (Homo sapiens) (UniProt P35968)
Sequence of UniProt P35968 (P35968 20-1356): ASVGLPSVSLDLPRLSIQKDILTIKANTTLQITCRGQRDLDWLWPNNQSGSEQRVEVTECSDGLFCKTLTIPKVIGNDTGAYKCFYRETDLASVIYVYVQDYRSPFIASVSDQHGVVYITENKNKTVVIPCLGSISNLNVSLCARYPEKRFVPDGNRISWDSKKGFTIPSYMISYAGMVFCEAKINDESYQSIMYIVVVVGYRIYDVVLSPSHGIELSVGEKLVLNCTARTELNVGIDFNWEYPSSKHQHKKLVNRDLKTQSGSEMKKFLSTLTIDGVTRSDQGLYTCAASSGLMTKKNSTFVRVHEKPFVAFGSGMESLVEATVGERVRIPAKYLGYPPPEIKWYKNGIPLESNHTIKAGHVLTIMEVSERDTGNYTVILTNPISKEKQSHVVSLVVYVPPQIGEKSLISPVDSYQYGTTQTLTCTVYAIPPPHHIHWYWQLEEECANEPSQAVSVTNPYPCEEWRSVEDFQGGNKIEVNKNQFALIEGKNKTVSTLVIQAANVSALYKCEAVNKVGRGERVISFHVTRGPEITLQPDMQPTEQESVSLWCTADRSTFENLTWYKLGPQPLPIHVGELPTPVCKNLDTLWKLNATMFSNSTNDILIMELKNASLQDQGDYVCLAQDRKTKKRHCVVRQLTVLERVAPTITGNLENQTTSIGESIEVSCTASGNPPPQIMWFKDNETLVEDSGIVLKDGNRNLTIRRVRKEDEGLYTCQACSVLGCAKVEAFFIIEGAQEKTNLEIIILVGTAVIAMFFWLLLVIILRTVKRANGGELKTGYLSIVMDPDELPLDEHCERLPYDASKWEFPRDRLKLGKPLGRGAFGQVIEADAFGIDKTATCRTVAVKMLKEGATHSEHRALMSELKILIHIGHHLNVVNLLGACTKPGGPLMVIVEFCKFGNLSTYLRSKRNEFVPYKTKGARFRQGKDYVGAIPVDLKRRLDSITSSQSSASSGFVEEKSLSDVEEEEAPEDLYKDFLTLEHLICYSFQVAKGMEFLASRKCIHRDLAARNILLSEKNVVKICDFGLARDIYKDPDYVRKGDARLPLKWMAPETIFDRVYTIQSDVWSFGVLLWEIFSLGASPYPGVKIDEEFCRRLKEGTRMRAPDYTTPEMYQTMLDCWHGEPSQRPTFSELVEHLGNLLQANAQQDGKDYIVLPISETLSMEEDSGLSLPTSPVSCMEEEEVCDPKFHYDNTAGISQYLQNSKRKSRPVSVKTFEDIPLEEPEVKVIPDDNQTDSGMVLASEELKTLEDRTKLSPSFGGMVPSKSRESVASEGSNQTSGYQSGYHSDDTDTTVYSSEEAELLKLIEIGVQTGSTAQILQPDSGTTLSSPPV

VEGF-A165 (from UniProt P15692)
Kd: 0.21 nM
